How the values were obtained:
[1] = fluorometric membrane depolarization, 23°C vs 37°C; details: glycan lost; control: wild type (less sensitive at 23°C than at 37°C)
[2] = anti-FLAG WB of cell lysates, normalized to total protein; details: glycan lost; control: wild type
[3] = ratio of WT-relative surface to WT-relative total expression; details: glycan lost; control: wild type
[4] = fluorometric membrane depolarization, FlexStation, 37°C; details: glycan lost; control: wild type
[5] = whole-cell patch-clamp, 37°C; details: glycan lost; control: wild type
[6] = whole-cell patch-clamp, maximum amplitude; details: glycan lost; control: wild type
[7] = fluorometric membrane depolarization, maximal RFU; details: glycan lost; control: wild type

Row | Protein | other: temperature dependence of agonist sensitivity, EC50 [1] | expression_or_secretion, fold_change [2] | localisation_or_trafficking, other: surface/total ratio relative to WT [3] | other: agonist sensitivity, EC50 [4] | other: agonist sensitivity, EC50 [5] | other: channel current [6] | other: maximal channel response, other: mean maximal RFU [7]
1 | hTRPA1: N747/753Q (protein) parent chain: MKRSLRKMWRPGEKKEPQGVVYEDVPDDTEDFKESLKVVFEGSAYGLQNFNKQKKLKRCDDMDTFFLHYAAAEGQIELMEKITRDSSLEVLHEMDDYGNTPLHCAVEKNQIESVKFLLSRGANPNLRNFNMMAPLHIAVQGMNNEVMKVLLEHRTIDVNLEGENGNTAVIIACTTNNSEALQILLKKGAKPCKSNKWGCFPIHQAAFSGSKECMEIILRFGEEHGYSRQLHINFMNNGKATPLHLAVQNGDLEMIKMCLDNGAQIDPVEKGRCTAIHFAATQGATEIVKLMISSYSGSVDIVNTTDGCHETMLHRASLFDHHELADYLISVGADINKIDSEGRSPLILATASASWNIVNLLLSKGAQVDIKDNFGRNFLHLTVQQPYGLKNLRPEFMQMQQIKELVMDEDNDGCTPLHYACRQGGPGSVNNLLGFNVSIHSKSKDKKSPLHFAASYGRINTCQRLLQDISDTRLLNEGDLHGMTPLHLAAKNGHDKVVQLLLKKGALFLSDHNGWTALHHASMGGYTQTMKVILDTNLKCTDRLDEDGNTALHFAAREGHAKAVALLLSHNADIVLNKQQASFLHLALHNKRKEVVLTIIRSKRWDECLKIFSHNSPGNKCPITEMIEYLPECMKVLLDFCMLHSTEDKSCRDYYIEYNFKYLQCPLEFTKKTPTQDVIYEPLTALNAMVQNNRIELLNHPVCKEYLLMKWLAYGFRAHMMNLGSYCLGLIPMTILVVNIKPGMAFNSTGIINETSDHSEILDTTNSYLIKTCMILVFLSSIFGYCKEAGQIFQQKRNYFMDISNVLEWIIYTTGIIFVLPLFVEIPAHLQWQCGAIAVYFYWMNFLLYLQRFENCGIFIVMLEVILKTLLRSTVVFIFLLLAFGLSFYILLNLQDPFSSPLLSIIQTFSMMLGDINYRESFLEPYLRNELAHPVLSFAQLVSFTIFVPIVLMNLLIGLAVGDIAEVQKHASLKRIAMQVELHTSLEKKLPLWFLRKVDQKSTIVYPNKPRSGGMLFHIFCFLFCTGEIRQEIPNADKSLEMEILKQKYRLKDLTFLLEKQHELIKLIIQKMEIISETEDDDSHCSFQDRFKKEQMEQRNSRWNTVLRAVKAKTHHLEP | changes, 14.8 vs 13.5 | decreases | no change | decreases, 20.9 vs 9.5 | decreases, 142.3 vs 35.0 | no change | no change, 866 vs 1155
2 | hTRPA1: N753Q (protein) parent chain: MKRSLRKMWRPGEKKEPQGVVYEDVPDDTEDFKESLKVVFEGSAYGLQNFNKQKKLKRCDDMDTFFLHYAAAEGQIELMEKITRDSSLEVLHEMDDYGNTPLHCAVEKNQIESVKFLLSRGANPNLRNFNMMAPLHIAVQGMNNEVMKVLLEHRTIDVNLEGENGNTAVIIACTTNNSEALQILLKKGAKPCKSNKWGCFPIHQAAFSGSKECMEIILRFGEEHGYSRQLHINFMNNGKATPLHLAVQNGDLEMIKMCLDNGAQIDPVEKGRCTAIHFAATQGATEIVKLMISSYSGSVDIVNTTDGCHETMLHRASLFDHHELADYLISVGADINKIDSEGRSPLILATASASWNIVNLLLSKGAQVDIKDNFGRNFLHLTVQQPYGLKNLRPEFMQMQQIKELVMDEDNDGCTPLHYACRQGGPGSVNNLLGFNVSIHSKSKDKKSPLHFAASYGRINTCQRLLQDISDTRLLNEGDLHGMTPLHLAAKNGHDKVVQLLLKKGALFLSDHNGWTALHHASMGGYTQTMKVILDTNLKCTDRLDEDGNTALHFAAREGHAKAVALLLSHNADIVLNKQQASFLHLALHNKRKEVVLTIIRSKRWDECLKIFSHNSPGNKCPITEMIEYLPECMKVLLDFCMLHSTEDKSCRDYYIEYNFKYLQCPLEFTKKTPTQDVIYEPLTALNAMVQNNRIELLNHPVCKEYLLMKWLAYGFRAHMMNLGSYCLGLIPMTILVVNIKPGMAFNSTGIINETSDHSEILDTTNSYLIKTCMILVFLSSIFGYCKEAGQIFQQKRNYFMDISNVLEWIIYTTGIIFVLPLFVEIPAHLQWQCGAIAVYFYWMNFLLYLQRFENCGIFIVMLEVILKTLLRSTVVFIFLLLAFGLSFYILLNLQDPFSSPLLSIIQTFSMMLGDINYRESFLEPYLRNELAHPVLSFAQLVSFTIFVPIVLMNLLIGLAVGDIAEVQKHASLKRIAMQVELHTSLEKKLPLWFLRKVDQKSTIVYPNKPRSGGMLFHIFCFLFCTGEIRQEIPNADKSLEMEILKQKYRLKDLTFLLEKQHELIKLIIQKMEIISETEDDDSHCSFQDRFKKEQMEQRNSRWNTVLRAVKAKTHHLEP | no change, 18.0 vs 13.5 | decreases | no change | no change, 10.5 vs 9.5 | no change, 42.0 vs 35.0 | no change | no change, 902 vs 1155
3 | hTRPA1: N747Q (protein) parent chain: MKRSLRKMWRPGEKKEPQGVVYEDVPDDTEDFKESLKVVFEGSAYGLQNFNKQKKLKRCDDMDTFFLHYAAAEGQIELMEKITRDSSLEVLHEMDDYGNTPLHCAVEKNQIESVKFLLSRGANPNLRNFNMMAPLHIAVQGMNNEVMKVLLEHRTIDVNLEGENGNTAVIIACTTNNSEALQILLKKGAKPCKSNKWGCFPIHQAAFSGSKECMEIILRFGEEHGYSRQLHINFMNNGKATPLHLAVQNGDLEMIKMCLDNGAQIDPVEKGRCTAIHFAATQGATEIVKLMISSYSGSVDIVNTTDGCHETMLHRASLFDHHELADYLISVGADINKIDSEGRSPLILATASASWNIVNLLLSKGAQVDIKDNFGRNFLHLTVQQPYGLKNLRPEFMQMQQIKELVMDEDNDGCTPLHYACRQGGPGSVNNLLGFNVSIHSKSKDKKSPLHFAASYGRINTCQRLLQDISDTRLLNEGDLHGMTPLHLAAKNGHDKVVQLLLKKGALFLSDHNGWTALHHASMGGYTQTMKVILDTNLKCTDRLDEDGNTALHFAAREGHAKAVALLLSHNADIVLNKQQASFLHLALHNKRKEVVLTIIRSKRWDECLKIFSHNSPGNKCPITEMIEYLPECMKVLLDFCMLHSTEDKSCRDYYIEYNFKYLQCPLEFTKKTPTQDVIYEPLTALNAMVQNNRIELLNHPVCKEYLLMKWLAYGFRAHMMNLGSYCLGLIPMTILVVNIKPGMAFNSTGIINETSDHSEILDTTNSYLIKTCMILVFLSSIFGYCKEAGQIFQQKRNYFMDISNVLEWIIYTTGIIFVLPLFVEIPAHLQWQCGAIAVYFYWMNFLLYLQRFENCGIFIVMLEVILKTLLRSTVVFIFLLLAFGLSFYILLNLQDPFSSPLLSIIQTFSMMLGDINYRESFLEPYLRNELAHPVLSFAQLVSFTIFVPIVLMNLLIGLAVGDIAEVQKHASLKRIAMQVELHTSLEKKLPLWFLRKVDQKSTIVYPNKPRSGGMLFHIFCFLFCTGEIRQEIPNADKSLEMEILKQKYRLKDLTFLLEKQHELIKLIIQKMEIISETEDDDSHCSFQDRFKKEQMEQRNSRWNTVLRAVKAKTHHLEP | changes, 18.2 vs 13.5 | decreases | increases |  | decreases, 141.0 vs 35.0 | no change | no change, 947 vs 1155

Source: article PMC5052711
